In assay [1] the target is T1, Human adenovirus serotype 7 fiber knob, His-tagged (His-HAd7K), wild type (human adenovirus serotype 7 (HAdV7), …).
T1 chain: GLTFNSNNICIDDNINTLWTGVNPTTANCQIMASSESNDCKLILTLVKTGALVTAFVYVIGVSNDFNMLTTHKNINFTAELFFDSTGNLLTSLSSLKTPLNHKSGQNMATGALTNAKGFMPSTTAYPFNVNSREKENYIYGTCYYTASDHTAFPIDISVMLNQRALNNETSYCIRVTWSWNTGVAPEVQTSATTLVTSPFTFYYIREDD
Kind of assay: BLI. Background: BLI is a label-free optical method that tracks binding on a fibre tip over time.

In assay [2] the target is T1, Human adenovirus serotype 7 fiber knob, …. The assay is described as follows: BLI.
For assay [3], the target named is T2, Human adenovirus serotype 7 fiber knob, His-tagged (His-HAd7K), wild type (human adenovirus serotype 7 (HAdV7), …).
T2 chain: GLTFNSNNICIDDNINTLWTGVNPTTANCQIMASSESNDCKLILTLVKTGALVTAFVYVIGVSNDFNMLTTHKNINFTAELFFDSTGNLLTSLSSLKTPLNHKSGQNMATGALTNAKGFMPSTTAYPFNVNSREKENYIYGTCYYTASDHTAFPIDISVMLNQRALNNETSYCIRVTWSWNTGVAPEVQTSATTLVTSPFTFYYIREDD
The assay is described as follows: cryo-EM structure. Particulars: both partners purified.

Assay [4] concerns the target T3, Human adenovirus serotype 7 fiber knob, His-tagged (His-HAd7K), wild type (human adenovirus serotype 7 (HAdV7), …, N-glycosylated (sugars almost 15% of the total mass by mass spectrometry) / Wild-type trimeric knob; N-terminal His tag and GSHM omitted. The printed limits D87-P273 do not fit the paper's own residue).
T3 chain: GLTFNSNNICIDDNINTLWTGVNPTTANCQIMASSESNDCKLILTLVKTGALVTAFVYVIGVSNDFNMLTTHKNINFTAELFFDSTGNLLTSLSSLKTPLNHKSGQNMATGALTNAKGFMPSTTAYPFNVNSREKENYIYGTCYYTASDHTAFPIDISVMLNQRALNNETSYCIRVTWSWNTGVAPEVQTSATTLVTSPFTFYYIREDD
Kind of assay: cryo-EM structure. The conditions noted are these: both partners purified.

One may read the koff as the rate constant with which the complex falls apart. Read a high koff as fast dissociation. One may read the Kd as the concentration at which binding is half-saturated. Low readings indicate tighter binding, high ones weaker binding. In general, stoichiometry N refers to the number of molecules, sites or subunits per partner or assembly.

“And” between values parts separate entries of the source, which are not always exact repeats. Equal entries are not always repeated.

B1: Desmoglein-2 (DSG2), non His-tagged, Leinco Technologies (receptor)
chain: AWITAPVALREGEDLSKKNPIAKIHSDLAEERGLKITYKYTGKGITEPPFGIFVFNKDTGELNVTSILDREETPFFLLTGYALDARGNNVEKPLELRIKVLDINDNEPVFTQDVFVGSVEELSAAHTLVMKINATDADEPNTLNSKISYRIVSLEPAYPPVFYLNKDTGEIYTTSVTLDREEHSSYTLTVEARDGNGEVTDKPVKQAQVQIRILDVNDNIPVVENKVLEGMVEENQVNVEVTRIKVFDADEIGSDNWLANFTFASGNEGGYFHIETDAQTNEGIVTLIKEVDYEEMKNLDFSVIVANKAAFHKSIRSKYKPTPIPIKVKVKNVKEGIHFKSSVISIYVSESMDRSSKGQIIGNFQAFDEDTGLPAHARYVKLEDRDNWISVDSVTSEIKLAKLPDFESRYVQNGTYTVKIVAISEDYPRKTITGTVLINVEDINDNCPTLIEPVQTICHDAEYVNVTAEDLDGHPNSGPFSFSVIDKPPGMAEKWKIARQESTSVLLQQSEKKLGRSEIQFLISDNQGFSCPEKQVLTLTVCECLHGSGCREAQHDSYVG
modifications: Wild-type trimeric knob; N-terminal His tag and GSHM omitted. The printed limits D87-P273 do not fit the paper's own residue numbering (V300 and P302 are present in the knob), so the deposited knob entity (same as 3EXW) with the last shaft repeat is used. Entity position = fiber number - 112 (D265=153, F269=157, N192=80), an offset inferred by assuming a 325-residue fiber and comparing with HAd3K.
As to B1, in assay [1], the dissociation rate constant (koff) was found to be 0.000112 s⁻¹. In addition, in assay [2], the dissociation constant Kd turned out to be 4.04 nM.

B2: Human adenovirus serotype 7 fiber knob, His-tagged (His-HAd7K), wild type (domain or fragment)
chain: GLTFNSNNICIDDNINTLWTGVNPTTANCQIMASSESNDCKLILTLVKTGALVTAFVYVIGVSNDFNMLTTHKNINFTAELFFDSTGNLLTSLSSLKTPLNHKSGQNMATGALTNAKGFMPSTTAYPFNVNSREKENYIYGTCYYTASDHTAFPIDISVMLNQRALNNETSYCIRVTWSWNTGVAPEVQTSATTLVTSPFTFYYIREDD
modifications: Wild-type trimeric knob; N-terminal His tag and GSHM omitted. The printed limits D87-P273 do not fit the paper's own residue numbering (V300 and P302 are present in the knob), so the deposited knob …
Take B2: in assay [3], the “stoichiometry N” value was 3.

B3: EC2-EC3 domains of desmoglein-2 (EC23 module), glycosylated (domain or fragment, UniProt Q14126 149-386, looked up)
chain: VLDINDNEPVFTQDVFVGSVEELSAAHTLVMKINATDADEPNTLNSKISYRIVSLEPAYPPVFYLNKDTGEIYTTSVTLDREEHSSYTLTVEARDGNGEVTDKPVKQAQVQIRILDVNDNIPVVENKVLEGMVEENQVNVEVTRIKVFDADEIGSDNWLANFTFASGNEGGYFHIETDAQTNEGIVTLIKEVDYEEMKNLDFSVIVANKAAFHKSIRSKYKPTPIPIKVKVKNVKEGI
notes: also called EC2-EC3 module; EC23 module of DSG2
As to B3, the “stoichiometry N” value in assay [4] is 2 EC23 modules per HAd7K trimer and 3 EC23 modules per HAd7K trimer.

(Values after paper PMC7599583 (Viruses, 2020).)
